Data as given in patent US20210246204A1 (Alector, published 2021).

Experiments:
[1] = target: T1, histidine-tagged human Siglec-7 (NovoProtein) (human, UniProt Q9Y286 19-353); assay: BLI, antibody captured
T1 construct: Bought protein; also called recombinant human Siglec-7; recombinant Siglec-7; not shown: histidine tag
Experimental: In this assay, the humanized antibodies were compared directly to S7AB. Briefly, the antibodies were captured on anti-human or anti-mouse IgG Fc Biosensors (Pall ForteBio). Varying concentrations (0-100 nM) of histidine-tagged human Siglec-7 (NovoProtein) were then bound to the captured anti-Siglec-7 surface (200 s association time, 900 s dissociation time). Multi-concentration kinetic analysis was performed using a 1:1 interaction model to extract association and dissociation rate constants (kₐ and kd, respectively) for each antibody. Apparent affinity constants (KD) were calculated from the ratio kd/kₐ.
The affinities of S7AB-H8 and variants S7AB-H8.1 through S7AB-H8.45 for human Siglec-7 were measured by BioLayer Interferometry according to the method described in Example 1 above.

[2] = target: human Siglec-7 on primary human monocyte-derived dendritic cells (human, UniProt Q9Y286 19-467); assay: cell-based or functional assay
human Siglec-7 on primary human monocyte-derived dendritic cells, sequence (Q9Y286 19-467): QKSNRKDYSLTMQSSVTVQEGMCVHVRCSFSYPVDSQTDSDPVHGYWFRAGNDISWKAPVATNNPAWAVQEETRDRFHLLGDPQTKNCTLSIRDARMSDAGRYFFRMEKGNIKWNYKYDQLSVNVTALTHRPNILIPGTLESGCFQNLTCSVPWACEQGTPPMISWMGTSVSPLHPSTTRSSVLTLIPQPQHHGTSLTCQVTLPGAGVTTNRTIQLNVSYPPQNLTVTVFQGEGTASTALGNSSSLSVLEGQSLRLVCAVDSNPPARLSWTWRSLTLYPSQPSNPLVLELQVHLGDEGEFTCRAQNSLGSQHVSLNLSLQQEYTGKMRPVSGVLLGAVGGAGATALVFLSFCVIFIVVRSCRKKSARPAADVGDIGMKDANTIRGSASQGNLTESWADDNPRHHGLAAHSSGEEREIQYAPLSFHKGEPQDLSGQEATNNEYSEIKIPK

T1 sequence (Q9Y286 19-353 limits assumed): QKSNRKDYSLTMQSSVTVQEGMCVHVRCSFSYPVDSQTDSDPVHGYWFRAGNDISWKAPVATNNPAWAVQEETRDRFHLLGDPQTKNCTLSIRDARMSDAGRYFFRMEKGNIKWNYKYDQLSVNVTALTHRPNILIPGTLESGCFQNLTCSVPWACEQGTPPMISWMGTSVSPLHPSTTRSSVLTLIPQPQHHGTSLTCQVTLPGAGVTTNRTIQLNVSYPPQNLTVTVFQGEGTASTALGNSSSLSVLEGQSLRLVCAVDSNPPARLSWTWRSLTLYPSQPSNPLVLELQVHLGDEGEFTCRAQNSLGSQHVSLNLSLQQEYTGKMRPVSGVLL

Binder | Kd [1] [nM] | fold improvement over S7AB-H8 [1] [fold] | koff [1] [s⁻¹] | kon [1] [M⁻¹ s⁻¹] | Fold increase in potency compared to AB-H8 [2] [fold] | Fold increase in potency compared to Chimeric Ab [2] [fold] | Maximal downregulation (% Siglec-7 remaining) [2] [%] | Receptor downregulation, (EC50) (pM) [2] [pM]
S7AB-H8.1 (antibody, V domains shown) VH: QVQLVQSGAEVKKPGASVKVSCKASGYAFTETWMNWVRQAPGQGLEWIGRIFPGLGHTNYAQKFQGRATLTEDTSTSTAYMELSSLRSEDTAVYYCARDYSDYYFDYWGQGTLVTVSS VL: DIQMTQSPSSLSASVGDRVTITCRGSQDINTYLNWYQQKPGKAPKLLIYYTSRLHSGVPSRFSGSGSGTDYTLTISSLQPEDFATYYCQQGNLLPWTFGQGTKLEIK | 0.574 | 1.8 | 7.05e-05 | 123000 | 2.9 | 8.7 | 10.9 | 117
S7AB-H8.11 (antibody, V domains shown) VH: QVQLVQSGAEVKKPGASVKVSCKASGYAFTETWMNWVRQAPGQGLEWIGRIFPGLGHTNYAQKFQGRATLTEDTSTSTAYMELSSLRSEDTAVYYCARDYSDYYFDYWGQGTLVTVSS VL: DIQMTQSPSSLSASVGDRVTITCRGSQDINTYLNWYQQKPGKAPKLLIYYTSRLHSGVPSRFSGSGSGTDYTLTISSLQPEDFATYYCQGGNTLPWTFGQGTKLEIK | 124 | 0.01 | 0.000388 | 3140 | 0.05 | 0.1 | 74.7 | 7140
S7AB-H8.7 (antibody, V domains shown) VH: QVQLVQSGAEVKKPGASVKVSCKASGYAFTMAWMNWVRQAPGQGLEWIGRIFPGYGHTNYAQKFQGRATLTEDTSTSTAYMELSSLRSEDTAVYYCARDYSDYYFDYWGQGTLVTVSS VL: DIQMTQSPSSLSASVGDRVTITCRGSQDINTYLNWYQQKPGKAPKLLIYYTSRLHSGVPSRFSGSGSGTDYTLTISSLQPEDFATYYCQQGNTKPWTFGQGTKLEIK | 0.62 | 1.7 | 4.19e-05 | 67600 | 4 | 12.1 | 2.1 | 84.7
S7AB-H8.10 (antibody, V domains shown) VH: QVQLVQSGAEVKKPGASVKVSCKASGYAFTEAWMNWVRQAPGQGLEWIGRIFPGYGHTNYAQKFQGRATLTEDTSTSTAYMELSSLRSEDTAVYYCARDYSDYYFDYWGQGTLVTVSS VL: DIQMTQSPSSLSASVGDRVTITCRGSQDINTYLNWYQQKPGKAPKLLIYYTSRLHSGVPSRFSGSGSGTDYTLTISSLQPEDFATYYCQQGNTKPWTFGQGTKLEIK | 1.62 | 0.6 | 8.14e-05 | 50400 | 1.7 | 5.2 | 7 | 197
S7AB-H8.13 (antibody, V domains shown) VH: QVQLVQSGAEVKKPGASVKVSCKASGYAFTGYWMNWVRQAPGQGLEWIGRIFPGLGHTNYAQKFQGRATLTEDTSTSTAYMELSSLRSEDTAVYYCARDYSDYYFDYWGQGTLVTVSS VL: DIQMTQSPSSLSASVGDRVTITCRGSQDINTYLNWYQQKPGKAPKLLIYYTSRLHSGVPSRFSGSGSGTDYTLTISSLQPEDFATYYCQGGNTLPWTFGQGTKLEIK | 35.7 | 0.03 | 0.000303 | 8500 | 0.1 | 0.5 | 43.3 | 2270
S7AB-H8.6 (antibody, V domains shown) VH: QVQLVQSGAEVKKPGASVKVSCKASGYAFTETWMNWVRQAPGQGLEWIGRIFPGLGHTNYAQKFQGRATLTEDTSTSTAYMELSSLRSEDTAVYYCARDYSDYYFDYWGQGTLVTVSS VL: DIQMTQSPSSLSASVGDRVTITCRGSQDINTYLNWYQQKPGKAPKLLIYYTSRLHSGVPSRFSGSGSGTDYTLTISSLQPEDFATYYCQQGNTKPWTFGQGTKLEIK | 2.24 | 0.5 | 5.71e-05 | 25500 | 2.2 | 6.6 | 7.2 | 154
S7AB-H8.12 (antibody, V domains shown) VH: QVQLVQSGAEVKKPGASVKVSCKASGYAFTMAWMNWVRQAPGQGLEWIGRIFPGYGHTNYAQKFQGRATLTEDTSTSTAYMELSSLRSEDTAVYYCARDYSDYYFDYWGQGTLVTVSS VL: DIQMTQSPSSLSASVGDRVTITCRGSQDINTYLNWYQQKPGKAPKLLIYYTSRLHSGVPSRFSGSGSGTDYTLTISSLQPEDFATYYCQGGNTLPWTFGQGTKLEIK | 46.3 | 0.02 | 0.000155 | 3350 | 0.01 | 0.04 | 61.3 | 25400
S7AB-H8.9 (antibody, V domains shown) VH: QVQLVQSGAEVKKPGASVKVSCKASGYAFTAAWMNWVRQAPGQGLEWIGRIFPGLGHTNYAQKFQGRATLTEDTSTSTAYMELSSLRSEDTAVYYCARDYSDYYFDYWGQGTLVTVSS VL: DIQMTQSPSSLSASVGDRVTITCRGSQDINTYLNWYQQKPGKAPKLLIYYTSRLHSGVPSRFSGSGSGTDYTLTISSLQPEDFATYYCQQGNTKPWTFGQGTKLEIK | 0.527 | 2 | 4.82e-05 | 91400 | 2.9 | 8.8 | 3.1 | 116

The next binders have a lower Kd [1] than those just listed; values first:

Kd [1] [nM] | fold improvement over S7AB-H8 [1] [fold] | koff [1] [s⁻¹] | kon [1] [M⁻¹ s⁻¹] | Fold increase in potency compared to AB-H8 [2] [fold] | Fold increase in potency compared to Chimeric Ab [2] [fold] | Maximal downregulation (% Siglec-7 remaining) [2] [%] | Receptor downregulation, (EC50) (pM) [2] [pM] | Binder
0.371 | 2.8 | 6.33e-05 | 171000 | 3.8 | 11.4 | 19.2 | 89.8 | S7AB-H8.8 (antibody, V domains shown) VH: QVQLVQSGAEVKKPGASVKVSCKASGYAFTGYWMNWVRQAPGQGLEWIGRIFPGLGHTNYAQKFQGRATLTEDTSTSTAYMELSSLRSEDTAVYYCARDYSDYYFDYWGQGTLVTVSS VL: DIQMTQSPSSLSASVGDRVTITCRGSQDINTYLNWYQQKPGKAPKLLIYYTSRLHSGVPSRFSGSGSGTDYTLTISSLQPEDFATYYCQQGNTKPWTFGQGTKLEIK
0.351 | 3 | 4.08e-05 | 116000 | 3.9 | 11.8 | 9.5 | 87 | S7AB-H8.5 (antibody, V domains shown) VH: QVQLVQSGAEVKKPGASVKVSCKASGYAFTEAWMNWVRQAPGQGLEWIGRIFPGYGHTNYAQKFQGRATLTEDTSTSTAYMELSSLRSEDTAVYYCARDYSDYYFDYWGQGTLVTVSS VL: DIQMTQSPSSLSASVGDRVTITCRGSQDINTYLNWYQQKPGKAPKLLIYYTSRLHSGVPSRFSGSGSGTDYTLTISSLQPEDFATYYCQQGNLLPWTFGQGTKLEIK
0.294 | 3.6 | 6.05e-05 | 206000 | 3.8 | 11.5 | 20.1 | 89.2 | S7AB-H8.3 (antibody, V domains shown) VH: QVQLVQSGAEVKKPGASVKVSCKASGYAFTGYWMNWVRQAPGQGLEWIGRIFPGLGHTNYAQKFQGRATLTEDTSTSTAYMELSSLRSEDTAVYYCARDYSDYYFDYWGQGTLVTVSS VL: DIQMTQSPSSLSASVGDRVTITCRGSQDINTYLNWYQQKPGKAPKLLIYYTSRLHSGVPSRFSGSGSGTDYTLTISSLQPEDFATYYCQQGNLLPWTFGQGTKLEIK
0.227 | 4.6 | 3.23e-05 | 142000 | 3.9 | 11.8 | 3.3 | 87 | S7AB-H8.2 (antibody, V domains shown) VH: QVQLVQSGAEVKKPGASVKVSCKASGYAFTMAWMNWVRQAPGQGLEWIGRIFPGYGHTNYAQKFQGRATLTEDTSTSTAYMELSSLRSEDTAVYYCARDYSDYYFDYWGQGTLVTVSS VL: DIQMTQSPSSLSASVGDRVTITCRGSQDINTYLNWYQQKPGKAPKLLIYYTSRLHSGVPSRFSGSGSGTDYTLTISSLQPEDFATYYCQQGNLLPWTFGQGTKLEIK
0.214 | 4.9 | 3.15e-05 | 147000 | 4.3 | 12.9 | 4.5 | 79.5 | S7AB-H8.4 (antibody, V domains shown) VH: QVQLVQSGAEVKKPGASVKVSCKASGYAFTAAWMNWVRQAPGQGLEWIGRIFPGLGHTNYAQKFQGRATLTEDTSTSTAYMELSSLRSEDTAVYYCARDYSDYYFDYWGQGTLVTVSS VL: DIQMTQSPSSLSASVGDRVTITCRGSQDINTYLNWYQQKPGKAPKLLIYYTSRLHSGVPSRFSGSGSGTDYTLTISSLQPEDFATYYCQQGNLLPWTFGQGTKLEIK
